Assay: label from the status in PepcDB records
For “TLLLCFIVAGLTGLGDNFTTISWFTFLDFRVQGDYLYFSPLAQSLDEGQWWRLVSPMLLHFGVLHLAMNSLWYWELGKRIELRQGPWALLGLTLLFSLVSNLAQHYTSGPSLFGGLSGVLYGLLGHIWLYQWLAPDRYFNLPKGVLVMMLIWLVVCLTGVVGTLGLGQIANAAHVGGLLIGCLTGLLGGALARRKLSA”, the protein production was “failed”. For “TLPPRGRLRIDVPLALAHAILIPNLKHFQSLYPDIDVILVSSDKKTDLISEGVDCLVRLGELQDSSFISRRLGDIRMVTCAAPSYLQQYGRPETLADLDQHRAINFFSDHSRDVMEWKFTKDGKIVSLRPVGSMLVDNSDILL”, the protein production was “failed”. With “TLQEYQKRMKKLDQQYKERIRNAELFLQLETEQVERNYIKEKKAAVKEFEDKKVELKENLIAELEEKKKMIENEKLTMELTGDSMEVKPIMTRKLRRRPNDPVPIPDKRRKPAPAQLNYLLTDEQIMEDLRTLNKLKSPKRPASPSSPEHLPATPAESPAQRFEARIEDGKLYYDKRWYHKSQAIYLESKDNQKLSCVISSVGANEIWVRKTSDSTKMRIYLGQLQRGLFVIRRRSAA” the protein production was “failed”. With “TLRNYPLTCKVVYSYKASQPDELTIEEHEVLEVIEDGDMEDWVKARNKVGQVGYVPEKYLQFPTS” the protein production was “not failed”. With “TPVRIESFDNSNIMGTSPVSAMVVFVNGKPSKKDYRKYKIKTVVGPDDYASMREVIRRRYGRVQREALTPPDLIVIDGGQGQVNIAKQVIQEELGLDIPIAGLQKNDKHQTHELLFGDPLEVVDLSRNSQEFFLLQRIQDEVHRFAITFHRQLRSKNSFSSQLDGIDG” the protein production was “failed”. With “TSSTIFSGVAIYVNGYTDPSAEELRKLMMLHGGQYHVYYSRSKTTHIIATNLPNAKIKELKGEKVIRPEWIVESIKAGRLLSYIPYQLYT” the protein production was “not failed”. For “TTQKGHRQKSFYRGVRAEKWAAWWLRCKGFHIAEIRFKTKCGEIDLIARRGNLVLIVEVKARSTLAEAMAAVSRVNERRIEAAADIWLARQKDRALLCVRFDLIAILPWRWPQHIPAFFM”, the protein production was “failed”. For “TVACPGRGRARPVCWKRSEMATCAVEVFGLLEDEENSRIVRVRVIAGIGLAKKDILGASDPYVRVTLYDPMNGVLTSVQTKTIKKSLNPKWNEEILFRVHPQQHRLLFEVFDENRLTRDDFLGQVDVPLYPLPTENPRLERPYTFKDFVLHPRSHKSRVKGYLRLKMTYLPKTSGSEDDNAEQAEELEPGWVVLDQPDAACH”, the protein production was “failed”. With “TVLYVHGGAWFQDPLENHFEYLDLLVDALDARVIMPVYPKIPHRDYRTTFELLTKIYKRLLTKIDEPENLVIIGDSAGGQIALAFAQMLKKEQLSQPGHIVLISPVLDATFKNPEARKYEKEDPMLGIDGSKYLVELWAGDAPLDDYKMSPMNGDLEGLGHITLTVGTKETLYPDAVKFSHMLNDKGIKHQFIPGYNLFHIYPLFPIPERQRFLEQLKKIIVTKEL” the protein production was “failed”. In the case of “TYNYYDHAASAGTGQYLNDVQVETIELPVDYDADFVIPVYGDSMEPKYHSGDYVFVKLSVELTDGDIGVFEYYGDAYIKQLLINDKGAFLHSLNQCGDYPDIPIDRDSDFRIIGEVMGSYRER”, the protein production is reported as “failed”. With “VASGYGGIRVGGPYFDDLSKGQVFDWAPGVTLSLGLAAAHQSIVGNRLRLALDSDLCAAVTGMPGPLAHPGLVCDVAIGQSTLATQRVKANLFYRGLRFHRFPAVGDTLYTRTEVVGLRANSPKPGRAPTGLAGLRMTTIDRTDRLVLDFYRCAMLPASPDWKPGAVPGDDLSRIGADAPAPAADPTAHWDGAVFRKRVPGPHFDAGIAGAVLHSTADLVSGAPELARLTLNIAATHHDWRVSGRRLVYGGHTIGLALAQATRLLPNLATVLDWESCDHTAPVHEGDTLYSELHIESAQAHADGGVLGLRSLVYAVSDSASEPDRQVLDWRFSALQF” the protein production was “not failed”. For “VAYLGPAGTFTEEALYKFADAGVFGDGEIEQLPAKSPQEAVDAVRHGTAQFAVVAIENFVDGPVTPTFDALDQGSNVQIIAEEELDIAFSIMVRPGTSLADVKTLATHPVGYQQVKNWMATTIPDAMYLSASSNGAGAQMVAEGTADAAAAPSRAAELFGLERLVDDVADVRGARTRFVAVQAQAA”, the protein production was “failed”. With “VDCIGCRKCEEVCLSDALDIMGKDVSVSELMDIIMQDYDFYISSGGGVTIGGGEMSLQTDFAVALLRECKKMMINTAVETQATTNVANYEKLAQVVDQFLIDIKHIDTTQHKALFGIGNENVRRNLERLMDLGANVVIRMPLVRGYNDSYDAITGAINYAMALSKRGNLQRIDILPYHQFGRN” the protein production was “failed”. In the case of “VDIVVIGAGFTGLSTAYHIRKTDSSASVVVLEGECVAFGASGRTSGWVVPIPVLDPATARTLYGKERLTELQNFAWDGLDYVRDLISRENMDSDFEVPGVTFTTLKGHEKRLETFIKYWKDQPRSSDSIIMDKATVSNALNSDAFSGGCRMLHSGQVNPVKHSRELKRIAQEAGAQIFEQTPVLDIEDHGTYFILKTPEGQVRTKHIVLGTNGFTHLLPATLGLRRAQLPMFVYQLMTEPLSEADWKALGWKHRAQFYDKTTYCPPTCRTTVDGRLQFNLCDVYLGTGRSMDEAQRMQFYDAAERMYKKMFPAFKNLRVAQRWSGACSISFDVRPQVGTLHDGRISYGYGYSGAGVMMSQNFGRILADLALQRKTELTE”, the protein production is reported as “failed”. For “VEIRTGEFEDIAGITDIFNFYIEHTNARFEEFPFTLENREEWFSQFSRTTKYQIYVAVENGVLQGFACSQKYRAIPAFDDTVEVSVYLAQEAKGKGLGSKLYTQLFSSIRAYGVHRILSGVALPNDASVALHKRFGFREVGIFNEYAKKHGQYISSVWLEKALNVESAL”, the protein production was “failed”. With “VFHPVECSYCHSESMMGFRYRCQQCHNYQLCQDCFWRGHAGGSHSNQHQMKEYTSW” the protein production was “not failed”. For “VGDGKNQIFVKSLDGYREVQITDEKEGVSTFKWGPTGKGLYYVTQSKECEEIKKRKDLYGDFQHIGKEHQNNCLYYIEIEKVIQSDTDEHKNRVVYQLTDGKDFHIHEFDISNDGKKVVFMATPSSNMADYINGDLYILHIKAGELQKLNVDKLLGGSVCFSPDGSEICYTASIREKGYYRNHIQDSTLEIYDINTGELIQPLTDFD”, the protein production was “failed”. In the case of “VGVRRENATATGVLLIPDGPDCPRPYPILTWGPSTSAQRHVGQDKTIVNANGNTPLVTRLASQGYVLVSPDYLGLGDSDYPFHPYLHLFTEVSSTIDAVRAARDVLWHSNTPLSNKVMLSGFSQGGQAALAVQREIEAHQSLSQEFSLVASAPISGPYALSQTILDSWSGRNK”, the protein production is reported as “failed”. With “VIAAHGWAGDATVWRAWQQRFEARGWHWDAIERGYGQREPHQPSWAELPGQRLVIAHSLGLHLLPEKVLQQADAVVSLAGFAAFVPAGAAGRALGVALKGMASCLGTSDEPAMLRKFLSRCASPLPLSALPNNPLLRGMHPSGRQRLQDDLVLLQQCQSLPDGWPEGASVLVVQGEQDAIVCPDSRTQLLQALPPSRTDHRLRPDEGHAVVTPAVLDLVVRWAGN” the protein production was “failed”. In the case of “VINLKELKILHTSDWHLGVTSWTSSRPVDRREELKKALDKVVEEAEKREVDLILLTGDLLHSRNNPSVVALHDLLDYLKRMMRTAPVVVLPGNHDWKGLKLFGNFVTSISSDITFVMSFEPVDVEAKRGQKVRILPFPYPDESEALRKNEGDFRFFLESRLNKLYEEALKKEDFAIFMGHFTVEGLAGYAGIEQGREIIINRALIPSVVDYAALGHIHSFREIQKQPLTIYPGSLIRIDFGEEADEKGAVFVELKRGEPPRYERIDASPLPLKTLYYKKIDTSALKSIRDFCRNFPGYVRVVYEEDSGILPDLMGEIDNLVKIE”, the protein production is reported as “not failed”. In the case of “VIVESLVYHLSGKTYESRLVYEPGALGRPGLVMAPNWMGIGEGAERIAKEVAEKGYVVLIADLYGQSVRPSNADEAGVAMMPLKNDRGELRKRMQEALAQLLGQSKALLEPGKVATFGFCFGGCCALELARSGADLRAAVSFHGTLDTPNPEDAKRIKGSVLVLHGASDPLVPKEQLPAFEDEMNAAKVDWQLLSYGGAVHSFTDPNANMPGKMQYDRRTSERAFRSMHNLLSEVF”, the protein production is reported as “failed”. For “VKPKGAFKAFTGEGQKLGSTAPQVLSTSSPAQQAENEAKASSSILIDESEPTTNIQIRLADGGRLVQKFNHSHRISDIRLFIVDARPAMAATSFILMTTFPNKELADESQTLKEANLLNAVIVQRLT”, the protein production was “failed”. For “VKSIFEIDIEKLADSGVKGIITDLDNTLVGWDVKEPTKGVKSWFAKAKDLGITVTIVSNNNKSRVSSFSSNLGVDYIFKARKPMGKAFKMAIKKMKIQPRETVVVGDQMLTDVFGGNCNGLYTIMVVPVKRTDGLITKFN”, the protein production was “not failed”. With “VLRWITAGESHGRALVAVVEGMVAGVHVTSADIADQLARRRLGYGRGARMTFERDAVTVLSGIRHGSTLGGPIAIEIGNTEWPKWETVMAADPVDPAELADVARNAPLTRPRPGHADYAGMLKYGFDDARPVLERASARETAARVAAGTVARAFLRQALGVEVLSHVISIGASAPYEGPPPRAEDLPAIDASPVRAYDKAAEADMIAQIEAAKKDGDTLGGVVEAVALGLPVGLGSFTSGDHRLDSQLAAAVMGIQAIKGVEIGDGFQTARRRGSRAHDEMYPGPDGVVRSTNRAGGLEGGMTNGQPLRVRAAMKPISTVPRALATVDLATGDEAVAIHQRSDVCAVPAAGVVVETMVALVLARAALEKFGGDSLAETQRNIAAYQRSVADREAPAARVSG” the protein production was “not failed”. In the case of “VMQMDRQPLVDPFGDYFQEFLSNAQNGQFFTPFGVCELMNQLITAPKVSDQPKQGDRRVLDPACGSGRLLLSAAQKDRALTFVGIDISYTCCLMTIINLCLNSLNGEVLHMNALTDQYWHRWL”, the protein production is reported as “failed”. For “VPKLVDHDERRRSITAAAWRLIAARGIEAANMRDIATEAGYTNGALSHYFAGKDEILRTSYEHISEATDRRIAEALGDATGLDALRILCREVMPINEEQLLEARIAASLWPRAMYDEQMAATNRRTMDNWREQMAIFLEQAREEGSVGDIDVTIVVEQLLNMMMGMQILGVLTPGETSSERQLEMLEQFVAAL”, the protein production was “not failed”. In the case of “VPYAVEGRNYQGDLYLPCERIRAGLVLLPGAAEEGKDDPRLQAFAETLARARFAVLVPDLGGFRSLRAGSRDIGETADAILWLSSRPGLSPGGKCGVAALSYAGGPALLAALEPRAGQRVRFLVTVGGYYDLRNVLTFFTTGWYRDGDRWRRGTPNNYGKWVFVLANTDRIKNVRDRTALEKLARRKMDNPAARTDDLVRGLGPEGKSLYDFFANTDPRQVPALVERLPTPIRRDLAALDPSRRDLRGLTARLIIIHGRDDDIIPAAESEALARAVPRDRRGLFVLDGLMHVELKPKLTDAFRLWRAVSAILRER”, the protein production is reported as “failed”. In the case of “VQRCVIIQKDQHGFGFTVSGDRIVLVQSVRPGGAAMKAGVKEGDRIIKVNGTMVTNSSHLEVVKLIKSGAYVALTLLGSS”, the protein production is reported as “not failed”. With “VQRPWLAPLPGAPMNACRLLLCFPYGGGGASAFNDLSRLADVGVATWAVKLPGREDRSMEAPVTRVANVIEAIVDALQSVGIPYAFYGHSFGAGLALDVAHALAERDRPLPTHLVLSGRMPPHTGYSPLLGAMDDNQLWQHVCSESLLPLPTDASCSFARHALGKLKADLALNAQLTYRFIRPLPVPLYVLNGQDDPLLELHRLDEWQRYTSTSFHSEYVPGGHFFFNINFQLLYLPLLTALD” the protein production was “not failed”. For “VQVGNCLQVMWLADRHSDPELYTAAKHCAKTHLAQLQNTEEFLHLPHRLLTDIISDGVPCSQNPTEAIEAWINFNKEEREAFAESLRTSLKEIGENVH”, the protein production was “not failed”. In the case of “VRQVEEYIEANWMRPITIEKLTALTGISSRGIFKAFQRSRGYSPMAFAKRVRLQHAHNLLSDGATPTTVTAAALSCGFSNLGHFARDYRDMFGEKPSETLQRARP”, the protein production is reported as “not failed”.
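Further: failed if final PepcDB status was selected cloned or expressed and not failed if soluble or beyond.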
